Here are results for five molecules from paper PMC5531254, “MRE11 stability is regulated by CK2-dependent interaction with R2TP complex” (Oncogene, 2017).

No end group written: not given here.

Broadly, the Kd is the free concentration of one partner at which half of the binding sites on the other are occupied at equilibrium, for simple one-to-one binding. Read a high Kd as weaker binding. By stoichiometry N is commonly meant a count of units in the complex or per binding partner.

Experiment [1] concerns the target PIH1D1 N-terminal PIH-N domain fragment (UniProt Q9NWS0). Description: ITC; MRE11 peptides with purified PIH1D1 PIH-N domain fragment, performed as described previously. (In general: Isothermal titration calorimetry measures the heat released or taken up as one component is titrated into another.)
Experiment [2] addresses PIH1D1 (51-180) (UniProt Q9NWS0). Kind of experiment: ITC; ~80 uM protein and ~800 uM peptide; performed in triplicate, means ± standard deviation; ITC as described previously.
Experiment [3] concerns the target T1, PIH1D1 (51-180) (UniProt Q9NWS0 51-180).
T1 construct: also called PIH1D1 N-terminal PIH-N domain fragment (aa 51-180); PIH-N; source: purified as described previously
Described as above. Particulars: both partners purified.

Chain of PIH1D1 (51-180) (UniProt Q9NWS0) (Q9NWS0 51-180): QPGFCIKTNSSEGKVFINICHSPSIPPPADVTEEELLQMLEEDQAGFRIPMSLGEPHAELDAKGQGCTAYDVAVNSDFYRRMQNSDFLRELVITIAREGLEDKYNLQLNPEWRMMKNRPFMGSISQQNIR
T1 sequence (Q9NWS0 51-180): as above

“MRE11 third acidic sequence peptide phosphorylated on serines 688 and 689” gave a Kd in experiment [1] of 41 µM.
On to “MRE11 DpSDD motif-containing peptide phosphorylated on serines 558 and 561”, for which, in experiment [1], the Kd is 26 µM.
In the experiment with PIH1D1 (51-180) [2], MRE11 pS688/pS689 peptide (ITC) returned a Kd of 40.9 µM and a stoichiometry N of 0.8.
The matching figures for MRE11 pS558/pS561 peptide (ITC): 26.1 µM and 1.1.

B1: TEL2 pS491 peptide (peptide)
peptide: YSDLDSDDEFVPY
modifications: also: phosphoserine at 491 (TEL2 numbering), position in peptide not given here
notes: N-terminal tyrosine added for concentration determination; not part of TEL2; source: synthetic peptide
Turning to B1, in the experiment with PIH1D1 (51-180) [3], the “stoichiometry N” value worked out at 1.3.
